# Patent publication US20090298169A1, “Pancreatic and Liver Endoderm Cells and Tissue by Differentiation of Definitive Endoderm Cells Obtained from Human Embryonic Stems” (The University of Georgia Research Foundation, priority 2006, published 2009)
# Tested on: BG02 hESCs
# Assay: QRT-PCR of mesendoderm, definitive endoderm and other lineage transcripts in hESCs differentiated in defined media
# Format: cell-based, human
# Conditions: FIG. 7; Wnt3a 25 ng/ml; over 72 hours of treatment
# Description: For DE differentiation, media was replaced after ˜18-24 hours with differentiation media (a), in the presence or absence of Wnt3a (25 ng/ml). RNA was prepared from cultures at times indicated and subject to QRT-PCR analysis of T, MixL1, GSC, Sox17 and CXCR4 transcripts. QRT-PCR reactions are normalized to GAPDH control. ‘Assays on demand’ QRT-PCR reactions were from Applied Biosystems and have been described previously (McLean et al., 2007).
# BG02 hESCs were plated in defined conditions (a) and after 18 hours media was switched to differentiation media (a) with Wnt3a (25 ng/ml) for the first 24 hours. The time course proceeded for 96 hours. Untreated hESCs (96 hours) or cells in differentiation media (a) were collected at 24, 48, 72 and 96 hours for QRT-PCR analysis. ‘Assays on demand’ QRT-PCR reactions were from Applied Biosystems and have been described previously (McLean et al., 2007).
# Culture of hESCs: Methods: hESCs are preferably grown in MEF-CM (details from previous filings) or defined media using Matrigel (1:200 dilution) as a growth matrix (for example). Cells are passaged manually or by using enzymatic methods such as collagenase or accutase and typically plated at 1×10^6 per 60 mm dish for 12-24 hours in hESC media then media is changes to promote DE differentiation (see ‘Differentiation media’ below). During differentiation, ‘differentiation media’ is replaced every day. […]
molecule,measurement,value
"Wnt3a: growth factor Wnt3a (25 ng/ml, R&D Systems) (protein, UniProt P56704 19-352, looked up) Protein Wnt-3a: SYPIWWSLAVGPQYSSLGSQPILCASIPGLVPKQLRFCRNYVEIMPSVAEGIKIGIQECQHQFRGRRWNCTTVHDSLAIFGPVLDKATRESAFVHAIASAGVAFAVTRSCAEGTAAICGCSSRHQGSPGKGWKWGGCSEDIEFGGMVSREFADARENRPDARSAMNRHNNEAGRQAIASHMHLKCKCHGLSGSCEVKTCWWSQPDFRAIGDFLKDKYDSASEMVVEKHRESRGWVETLRPRYTYFKVPTERDLVYYEASPNFCEPNPETGSFGTRDRTCNVSSHGIDGCDLLCCGRGHNARAERRREKCRCVFHWCCYVSCQECTRVYDVHTCK","amount of CXCR4 mRNA produced, presence versus absence of Wnt3a",improves the amount of CXCR4 mRNA produced
